In patent US10907134B2, “Mutated genes for the catalytic protein of oplophorus luciferase and use thereof” (JNC CORPORATION, priority 2013, dated 2021):
Where a chain is given by its changes, count along the chain named. Numbers in names are those of the source.

B1: KAZ-F68D: KAZ with single amino acid substitution F68D (protein)
chain: FTLADFVGDWQQTAGYNQDQVLEQGGLSSLFQALGVSVTPIQKVVLSGENGLKADIHVIIPYEGLSGDQMGLIEMIFKVVYPVDDHHFKIILHYGTLVIDGVTPNMIDYFGRPYPGIAVFDGKQITVTGTLWNGNKIYDERLINPDGSLLFRVTINGVTGWRLCENILA
B2: KAZ-M75K: KAZ with single amino acid substitution M75K (protein)
chain: B1 chain with D68F, M75K
B3: KAZ-L72Q: KAZ with single amino acid substitution L72Q (protein)
chain: B1 chain with D68F, L72Q
B4: KAZ-N166R: KAZ with single amino acid substitution N166R (protein)
chain: B1 chain with D68F, N166R
B5: KAZ-Q124K: KAZ with single amino acid substitution Q124K (protein)
chain: B1 chain with D68F, Q124K
B6: KAZ-P115E: KAZ with single amino acid substitution P115E (protein)
chain: B1 chain with D68F, P115E
B7: KAZ-I90V: KAZ with single amino acid substitution I90V (protein)
chain: B1 chain with D68F, I90V

Tests used:
CHO-K1 cells = experiment: Luminescence activity of KAZ mutants expressed in animal culture cells with signal peptide of Gaussia luciferase for secretion; assay type: cell-based, Chinese hamster; details: Table 5, pcDNA3-GLsp- vectors, CHO-K1, 48 hours, 0.5 μg coelenterazine; for Relative Luminescence Activity (Imax) (%) Cell Extracts: 5 μL cell extracts; for Relative Luminescence Activity (Imax) (%) Culture Medium: 5 μL culture medium
Description: Chinese hamster ovary cell line CHO-K1 was cultured in Ham's F-12 medium (manufactured by Wako Pure Chemical Industries, Ltd.) supplemented with 10% (v/v) fetal bovine serum (manufactured by Biowest Inc.). The CHO-K1 cells were plated in a 6-well plate in 1×10^5 cells/well/2 mL medium (n=2) and cultured in an incubator at 37° C. in 5% (v/v) CO2. After 24 hours, the purified recombinant plasmid was transfected to CHO-K1 cells using a FuGene HD transfection kit (manufactured by Promega Corp.), which was provided for subsequent experiment. Specifically, 1 μg of the recombinant plasmid pGL4.13 [Luc2/sv40], 0.1 μg of the internal standard vector and 3 μL of FuGene HD were added to 100 μL of the medium, which was allowed to stand at room temperature for 15 minutes. Subsequently, 100 μL of the DNA-FuGene complex was added to the cells in the 6 wells. After incubation for 48 hours, the culture medium was collected. On the other hand, the KAZ mutants expressed in the cells were washed 3 times with 3 mL of 1×PBS, then suspended in 1 mL of 1×PBS and disrupted on ice by ultrasonication, which was used as enzyme solutions of the cell-extracts of KAZ mutants.
A luminescence reaction was started by adding 5 μL of the culture media and cell extracts obtained in EXAMPLE 10 to 100 μL of 30 mM Tris-HCl (pH 7.6)-10 mM EDTA (manufactured by Wako Pure Chemical Industries, Ltd.) containing 0.5 μg of coelenterazine (manufactured by INC Corp.). The luminescence activity was determined using a luminometer (manufactured by Atto Inc.: AB2200) for 60 seconds, and the maximum intensity of luminescence (Imax) was defined as a percentage.
Culture media of the KAZ mutants with two amino acid substitutions and KAZ mutants with three amino acid substitutions and the enzyme solutions of the cell-extracts of KAZ mutants were prepared in the same manner as EXAMPLE 10.
In the resultant enzyme solutions and the enzyme solutions of the cell-extracts of KAZ mutants, luminescence activities were determined in the same manner as EXAMPLE 11.

[1] = Luminescence activity of KAZ mutants (pCold II, E. coli) in supernatant and precipitate of crude enzyme solution; assay type: biochemical; details: Table 3, pCold II, E. coli BL21, 0.5 μg coelenterazine, 60 seconds; for Relative Luminescence Activity (Imax) Precipitate: 5 μL precipitate; for Relative Luminescence Activity (Imax) Supernatant: 5 μL supernatant
Description: In order to express the KAZ mutants in E. coli, the recombinant plasmid prepared in EXAMPLE 3 was used. The E. coli BL21 strain (Novagen, Madison, Wis.) was used as a host cell. The BL21 strain carrying the recombinant plasmid was incubated in 5 mL of Luria-Bertani medium (hereinafter designated as LB medium) containing ampicillin (50 μg/mL) at 37° C. for 18 hours. This seed culture, 0.1 mL, was inoculated to 10 mL of LB medium and incubated for 3 hours, followed by cooling in an ice-water bath for 1 hour. IPTG was added to the culture medium at a final concentration of 1 mM, followed by incubation at 15° C. for further 20 hours. After completion of the incubation, 1 mL of the cultured medium was harvested by centrifugation at 10,000 rpm for 2 minutes. The thus collected E. coli cells were suspended in 0.5 mL of 30 mM Tris-HCl (pH 7.6)-10 mM EDTA (manufactured by Wako Pure Chemical Industries, Ltd.) (hereinafter designated as TE). The E. coli cells were disrupted by sonication for 3 seconds using a Branson Model 250 Sonifier (Danbury, Conn.) to give a crude enzyme solution. After 0.5 mL of the crude enzyme solution was further centrifuged at 10,000 rpm for 2 minutes to separate the supernatant from the precipitate, the precipitate was suspended in 0.5 mL of TE. Then 20 μL each of the supernatant and precipitate were analyzed by SDS-PAGE to confirm the presence or absence of soluble and insoluble proteins. The results are shown in FIG. 1, wherein M and 1 to 17 denote: M: molecular weight size markers; 1: KAZ; 2 KAZ-A4E; 3: KAZ-Q11R; 4: KAZ-Q18L; 5: KAZ-L27V; 6: KAZ-A33N; 7: KAZ-K43R; 8: KAZ-V44I; 9: KAZ-A54I; 10: KAZ-F68D; 11: KAZ-L72Q; 12: KAZ-M75K; 13: KAZ-I90V; 14: KAZ-P115E; 15: KAZ-Q124K; 16: KAZ-Y138I; 17: KAZ-N166R and 18: dnKAZ.
A luminescence reaction was started by the addition of 5 μL each of the supernatant and precipitate obtained in EXAMPLE 4 to 100 μL of TE containing 0.5 μg of coelenterazine (manufactured by JNC Corp.). The luminescence activity was measured for 60 seconds using a luminometer (manufactured by Atto Corp.: AB2200) and expressed in terms of relative luminescence activity (Imax).
To express the KAZ mutants with two amino acid substitutions and three amino acid substitutions in E. coli using a pCold II vector, the recombinant plasmid constructed in EXAMPLE 13 and pCold-V44I-KAZ, pCold-A54I-KAZ, pCold-Y138I-KAZ prepared in EXAMPLE 3 were used. The supernatant and precipitate of each crude enzyme solution were prepared in the same manner as EXAMPLE 4, using the E. coli BL21 starin (Novagen, Madison, Wis.) as a host cell. The supernatant and precipitate, 20 μL each, were subjected to SDS-PAGE analysis to confirm the presence or absence of soluble proteins and insoluble proteins. In FIG. 3, M and 1 to 9 are as follows. M: molecular weight markers; 1: dnKAZ; 2: KAZ; 3: KAZ-V44I-A54I; 4: KAZ-V44I-Y138I; 5: KAZ-A54I-Y138I; 6: KAZ-V44I-A54I-Y138I; 7: KAZ-V44I; 8: KAZ-A54I; and 9: KAZ-Y138I.
The luminescence activities of 5 μL each of the supernatant and precipitate obtained in EXAMPLE 14 were determined in the same manner as EXAMPLE 5. The luminescence activity was assayed with a luminometer (manufactured by Atto Inc.: AB2200) for 60 seconds, and the maximum intensity of luminescence (Imax) was shown as relative luminescence activity.

[2] = Luminescence activity of ZZ-fused KAZ mutants in crude enzyme solutions; assay type: biochemical; details: Table 4; ZZ-fused (pCold-ZZ-P-); 1 μL crude enzyme solution, 1 mM DTT; 1 μg coelenterazine
Description: To express the ZZ-fused KAZ mutants in E. coli, the recombinant plasmid prepared in EXAMPLE 6 was used. Crude enzyme solutions were prepared in the same manner as EXAMPLE 4 using the E. coli BL21 strain (Novagen, Madison, Wis.) as a host cell. The resultant crude enzyme solution, 5 μL, was subjected to SDS-PAGE analysis to confirm expression of the proteins (FIG. 2). In FIG. 2, M and 1 to 18 are the same as described in FIG. 1.
DTT was added to the crude enzyme solution obtained in EXAMPLE 7 at a final concentration of 1 mM and the mixture was allowed to stand in an ice water for more than 5 hours. A luminescence reaction was started by adding 1 μL of the crude enzyme solution to 100 μL of TE containing 1 μg of coelenterazine (manufactured by JNC Corp.). The luminescence activity was determined using a luminometer (manufactured by Atto Inc.: AB2200) for 60 seconds, and the maximum intensity of luminescence (Imax) was shown as relative luminescence activity.
To express the ZZ-fused KAZ mutants in E. coli, the recombinant plasmid constructed in EXAMPLE 16 and pCold-ZZ-P-V44I-KAZ, pCold-ZZ-P-A54I-KAZ, pCold-ZZ-P-Y138I-KAZ prepared in EXAMPLE 6 were used. Crude enzyme solutions were prepared in the same manner as EXAMPLE 7, using the E. coli BL21 strain (Novagen, Madison, Wis.) as a host cell. DTT was added to the crude enzyme solutions at a final concentration of 1 mM. The mixtures were allowed to stand over 5 hours on ice, and luminescence activities were then assayed. The luminescence activities were determined by the method described in EXAMPLE 8. Also, 5 μL of the resultant crude enzyme solutions were subjected to SDS-PAGE analysis to confirm protein expression (FIG. 4). In FIG. 4, M and 1 to 9 are as follows. M: molecular weight size markers; 1: ZZ-P-KAZ; 2: ZZ-P-KAZ-V44I; 3: ZZ-P-KAZ-A54I; 4: ZZ-P-KAZ-Y138I; 5: ZZ-P-KAZ-V44I-A54I; 6: ZZ-P-KAZ-V44I-Y138I; 7: ZZ-P-KAZ-A54I-Y138I; 8: ZZ-P-KAZ-V44I-A54I-Y138I; and 9: ZZ-P-dnKAZ.

Molecule | Relative Luminescence Activity (Imax) (%) Cell Extracts (CHO-K1 cells) [%] | Relative Luminescence Activity (Imax) (%) Culture Medium (CHO-K1 cells) | Relative Luminescence Activity (Imax) Precipitate [1] | Relative Luminescence Activity (Imax) Supernatant [1] | Relative Luminescence Activity (Imax) [2]
B1 | 0.3 | less than 0.01% | 0.2 | 5.4 | 2.7
B2 | 0.2 | less than 0.01% | 0.4 | 4.6 | 1.3
B3 | 0.4 | less than 0.01% | 0.6 | 7.2 | 2.5
B4 | 0.2 | less than 0.01% | 0.8 | 4.7 | 3.6
B5 | 0.3 | less than 0.01% | 0.8 | 7.4 | 3.7
B6 | 0.3 | less than 0.01% | 1.1 | 16 | 4.5
B7 | 0.3 | less than 0.01% | 0.4 | 2.1 | 1.8
